# Test: yeast display, Sf9 membrane polyspecificity reagent, FACS + sequencing; frameworks hold sequencing errors
# How it was run: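 Genes from sorted yeast were amplified by colony PCR, read by MiSeq 2 × 250 sequencing and filtered on CDR length. These cells carried a synthetic nanobody library in Saccharomyces cerevisiae BJ5465 and were sorted by FACS into low and high (top ~1%) gates on anti-HA and streptavidin fluorescence. Polyreactivity is labelled according to the gate of origin.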
row,Sequence,polyreactivity (PSR sort gate)
1,QVQLVESGGGLVQAGGSLRLSCAASGSTFQVYAMGWYRQAPGKERELVASITSGGSTYADSVKGRFTISRDNAKNTVYLQINSLKPEDTAVYYCAAGGYFYPYTYDYWGQGTQVTVSS,low polyreactivity
2,QVQLVESGGGLVQAGGSLRLSCAASGSTFQWYAMGWYRQAPGKERELVAGITRTGSTYYADSVKGRFTISRDNAKNTVYLQMNSLKPEDTAVYYCAAKWHTASGKYYYWGQGTQVTVSS,high polyreactivity
3,QVQLVESGGGLVQAGGSLRLSCAASGSTFQWYTMGWYRQAPGKERELVAAISRSGGRTYYADSVKGRFTISRDNAKNTVYLQMNSLKPEDTAVYYCAARWGRLPEQYRYDYWGQGTQVTVSS,high polyreactivity
4,QVQLVESGGGLVQAGGSLRLSCAASGSTFQYKAMGWYRQAPGKERELVAAISRRGGSTYYADSVKRRFTISRDNAKNTVYFQMNSLKPADTAVYYCAKEKGYWSGYDYWGQGTQVTVSS,high polyreactivity
5,QVQLVESGGGLVQAGGSLRLSCAASGSTFQYNAMGWYRQAPGKERELVARISSSGGRTYYADSVKGRFTISRDNAKNTVYLQMNSLKPEDTAVYYCNKGYPYVAYDYWGQGTQVTVSS,high polyreactivity
6,QVQLVESGGGLVQAGGSLRLSCAASGSTFQYYAMGWYRQAPGKERELVAAISDGTNTNYADSVKGRFTISRDNAKNTVYLQMNSLKPEDTAVYYCAARFYSIVKYVGIGTDEYDYWGQGTQVTVSS,low polyreactivity
7,QVQLVESGGGLVQAGGSLRLSCAASGSTFQYYAMGWYRQAPGKERELVAAISYGGSRTYYADSVKGRFTISRDNAKNNVYLQMNSLKPEDTAVYYCAKVKYRALAPYYYWGQGTQVTVSS,high polyreactivity
8,QVQLVESGGGLVQAGGSLRLSCAASGSTFQYYAMGWYRQAPGKEREMVAAISASVDTTFYADSVKGRFTISRDNAKNTVYLQMNSLKPEDTAVYYCATDWPHWRKVYWFDYWGQGTQVTVSS,low polyreactivity
9,QVQLVESGGGLVQAGGSLRLSCAASGSTFRANAMGWYRQAPGKERELVAAISQSGGITYYADSVKGRFTISRDNAKNTVYLQMNSLKPEDTAVYYCAALGYRIKRGRFYYWGQGTQVTVSS,high polyreactivity
10,QVQLVESGGGLVQAGGSLRLSCAASGSTFRANAMGWYRQAPGKERELVAAISSGDSTNYADSVKGRFTISRDNAKKSVYLQMNSLKPEDTAVYYCAAVYTYYWWGSYGYWGQGTQVTVSS,low polyreactivity
11,QVQLVESGGGLVQAGGSLRLSCAASGSTFREYAMGWSRQAPGKERELVAAISSGDSTNYADSVKGRFTISRDNAKNTVYLQMNSLKPEDTAVYYCAADAPGAAAVQNDYWGQGTQVTVSS,low polyreactivity
12,QVQLVESGGGLVQAGGSLRLSCAASGSTFRFNAMGWYRQAPGKERELVAAITGIGGITYYADSVKGRFTISRDNAKNTVYFQMNSLKPEDTAVYYCNAAGGYKPYLQDVDSRYDYWGQGTQVTVSS,high polyreactivity
13,QVQLVESGGGLVQAGGSLRLSCAASGSTFRFYGMGWYRQAPGKERELVAAITYRSGITYADSGKGGFSISRDNANNTVYLLMNSLKPEETAVYYCAARARRYTDEYDYWGQGTQVTVSS,low polyreactivity
14,QVQLVESGGGLVQAGGSLRLSCAASGSTFRFYTMGWYRQAPGKERELVATITSGGSTNYADSVKGRFTISRDNAKNTVYLQMNSLKPEDTAVYYCAASSVLTNHDYWGQGTQVTVSS,low polyreactivity
15,QVQLVESGGGLVQAGGSLRLSCAASGSTFRGNAMGWYRPAPGKERELVASITGGGSTNYADSVKGRFTISRDNAKNTVYVPMNSLKPEDTAGYYCAADWGADFYWGQGTQVTVSS,low polyreactivity
16,QVQLVESGGGLVQAGGSLRLSCAASGSTFRGNAMGWYRQAPGKERELVAAITGRGGRTYYADSVKGRFTISRDNAKNTVYLQMNSLKPEDTAVYYCAAYSRYKPYGITAYDYWGQGTQVNVSS,high polyreactivity
17,QVQLVESGGGLVQAGGSLRLSCAASGSTFRGYAMGWYRQAPGKERELVAAISWSAGSTYYADSVKGRFTISRDNAKNTVYLQMNRLKPEDTAVYYCAKASVALRYYSYSLGRDYWGQGTQVTVSS,low polyreactivity
18,QVQLVESGGGLVQAGGSLRLSCAASGSTFRHYAMGWYRQAPGKERELVAVISWGGTSTYYADSVKGRFTISRDNAKNTVYLQMNSLKPEDTAVYYCNKAYFPIFKGYEMYYWGQGTQVTVSS,low polyreactivity
19,QVQLVESGGGLVQAGGSLRLSCAASGSTFRINAMGWYRLAPGKEREFVAAIRWNGGSTNYADSVKGRFTISRDNAKNTVYVQMNSLKPEDTAVYYCAADGYIGWRHIYEYWGQGTQVTVSS,low polyreactivity
20,QVQLVESGGGLVQAGGSLRLSCAASGSTFRIYAMGWYRQAPGKERELVAAITSGGDTNYADSVKGRFTISRDNANNTVYLQMKSLKPEDTSVYYCAADGHSVYTELDYWGQGTQVTVSS,low polyreactivity
21,QVQLVESGGGLVQAGGSLRLSCAASGSTFRIYAMGWYRQAPGKERELVAGITRRGGSTFYADSVKGRFTISRDNAKNTVYLQMNSLKPEDTAVYYCAARFRGGMDYWGQGTQVTVSS,high polyreactivity
22,QVQLVESGGGLVQAGGSLRLSCAASGSTFRLYAIGWYRQAPWKERELDAAISSGGTTKYADSVKGRFTISRDNAKKTVYLQMNRLKPEDTAVYYCNAVYHWGNPGEYATLPRYDYWGQGTQVTVSS,high polyreactivity

row,Sequence,polyreactivity (PSR sort gate)
1,QVQLVESGGGLVQAGGSLRLSCAASGSTFRLYAMGWYRQAPGKEREFVAAISFRGGSTYYADSVKGRFTISRDNAKNTVYLQMNSLKPEDTAVYYCNARVRVRLGRNWSSYYYWGQGTQVTVSS,high polyreactivity
2,QVQLVESGGGLVQAGGSLRLSCAASGSTFRNYAMGWYRQAPGKERELVAAISGSGGRTNYADSVKGRFTISRDNAKNTVYLQMNSLKPEDTAVYYCNARFPDWALSEISHSTTYGYWGQGTQVTVSS,low polyreactivity
3,QVQLVESGGGLVQAGGSLRLSCAASGSTFRPYGMGWYRQAPGKERELVAAINSGDSTYYADSVKGRFTISRDNAKNTFYLQMNSLKPEDTAVYYCNADVWWDTWFLDGYDYWGQGTQVTVSS,high polyreactivity
4,QVQLVESGGGLVQAGGSLRLSCAASGSTFRQNTMGWYRQAPGKEREFVAAINYSGGSTNYADSVKGRFTISRDNAKNTVYLQMNSLKPEDTAVYYCAVRQYYYKRMGYWGQGTQVTVSS,high polyreactivity
5,QVQLVESGGGLVQAGGSLRLSCAASGSTFRQYAMGWYRQAPGKERELVAAISSSGSTTYYADSVKGRFTISRDNAKNTVDVQMNSRKPEDTAVYYCAATYGFYYFPYDYWGQGTQVTVSS,low polyreactivity
6,QVQLVESGGGLVQAGGSLRLSCAASGSTFRQYAMGWYRQAPGKERELVAAITWRGDNTYYADSVKGRFTISRDNAKNTVYLQMNSLKPEDTAVYYCAARWSYRLYWGYGYWGQGTQVTVSS,low polyreactivity
7,QVQLVESGGGLVQAGGSLRLSCAASGSTFRQYPMGWYRQAPGKEREMVAAITWRGDNTYYADSVKGRFTISRDNAKKTVYLQMNSLKPEDTAVYYCAARWSYRLYWGYGYWGQGTQVTVSS,low polyreactivity
8,QVQLVESGGGLVQAGGSLRLSCAASGSTFRRNAMGWDRQAPGKERELVATISPGARTNYADSVKGRFTISRDNAKNTVYLQMNSLKPEDTAVYYCNAEYTLLYPLYDYWGQGTQVTVSS,low polyreactivity
9,QVQLVESGGGLVQAGGSLRLSCAASGSTFRRNAMGWYRPAPGKERELVAAITSTDSTYYADSVKGRFTISRDNAKNTVYLQMNSLKPEDTAVYYCAKGYWWGGQMGYWGQGTQVTVSS,low polyreactivity
10,QVQLVESGGGLVQAGGSLRLSCAASGSTFRRNAMGWYRQAPGKERELVAAISAGGGSTYYADSVKGRFTISRDNAKNTVYLQMNSLKPEDTAVYYCNVAGSGVRRMGYWGQGTQVTVSS,high polyreactivity
11,QVQLVESGGGLVQAGGSLRLSCAASGSTFRRNAMGWYRQAPGKERELVASISFSGGSTFYADSVKGRFTISRDNAKNTVYLQMNSLKPEDTAVYYCATRYYYSSYEYWGQGTQVTVSS,high polyreactivity
12,QVQLVESGGGLVQAGGSLRLSCAASGSTFRRNVMGWYRQAPGKERELVAAISRSGGRTYYADSVKGRFTISRDNAKNTVYLQMNSLKPEDTAVYYCNATRAGENPDGGDEYWGQGTQVTVSS,high polyreactivity
13,QVQLVESGGGLVQAGGSLRLSCAASGSTFRRYAMGWYRQAPGKERELVAAISSNGGSTYYADSVKGRFTISRDNAKNTVYLQMNSLKPEDTAVYYCAAYRSLDFDYWGQGTQVTVSS,high polyreactivity
14,QVQLVESGGGLVQAGGSLRLSCAASGSTFRRYAMGWYRQAPGKERELVAAITGSGGRTYYADSVKGRFTISRDNAKNTVYLQMNSLIPVDTAVYYCAKEGTFTKGVRLFDYWGQGTQVTVSS,high polyreactivity
15,QVQLVESGGGLVQAGGSLRLSCAASGSTFRRYAMGWYRQAPGKERELVATITSGGRTNYADSVKGRFTISRDNAKNTVYLQMNSLKPEDTAVYYCADRPYFYERSAGYYWGQGTQVTVSS,high polyreactivity
16,QVQLVESGGGLVQAGGSLRLSCAASGSTFRRYTMGWYRQAPGKERELVAAISRSAGSTSYADSVKGRFTISRDNAKNTVYLQMNSLKPEDTAVYYCNARVPLRQYSNYYWGQGTQVTVSS,high polyreactivity
17,QVQLVESGGGLVQAGGSLRLSCAASGSTFRSNAMGWYRQAPGKERELVAVISTRGGRTYYADSVKGRFTISRDNAKNTVYLQMNSLKPEDTAVYYCNTQISGSPYPYYYWGQGTQVTVSS,high polyreactivity
18,QVQLVESGGGLVQAGGSLRLSCAASGSTFRSNAMGWYRQAPGKERVLVAAISRSGGSTYYADSVKGRFTISRDNAKNSVYLQMNSLKPEDTAVYYCAGRYSRDPRTGDYGYCGQGTQVTVSS,low polyreactivity
19,QVQLVESGGGLVQAGGSLRLSCAASGSTFRSYAMGWYRQAHGKERELVAAITSGGSTYYADSVKGRFTISRDNAKNTVYLQMNSLKPEDTAVYYCNARRRTRNVPGKRLRGGIYVYWGQGTQVTVSS,high polyreactivity
20,QVQLVESGGGLVQAGGSLRLSCAASGSTFRSYAMGWYRQAPGKEWELVAAISGDGSTNYADSVKGRFTISRDNAKNTVYLQMNSLKPEDTAVSYCAKDPGYPAPYYDYYYWGQGTQVTVSS,low polyreactivity
21,QVQLVESGGGLVQAGGSLRLSCAASGSTFRTNAMGWYRQAPGKERELVAGITSGTSTNYADSVKGRFTISRDNAKNTVYLQMNSLKPEDTAVYYCNTDRIWYGPEYDYWGQGTQVTVSS,low polyreactivity
